test system: Escherichia coli TOP10; assay: shrunken log2 fold change of peptide-encoding DNA abundance (4.5 h post-induction vs induction); higher = less antimicrobial activity (less host growth inhibition); conditions: time post-induction: 4.5 h; library: site-saturation at positions 5, 18, 19, 20
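Note: peptides expressed intracellularly from a pBAD plasmid library in pooled LB shake-flask culture, induced with 0.3% L-arabinose, DNA abundance read by NGS, three biological replicates, DESeq2 with apeglm shrinkage.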

Sequence	shrunken log2 fold change
RRIRLRPPRLPRPRPRPVHCPRP	-0.11
RRIRLRPPRLPRPRPRPTPEPRP	0.181
RRIRDRPPRLPRPRPRPQAAPRP	0.0147
RRIRSRPPRLPRPRPRPRDFPRP	0.528
RRIRCRPPRLPRPRPRPEQRPRP	0.23
RRIRGRPPRLPRPRPRPFQTPRP	0.013
RRIRHRPPRLPRPRPRPRDLPRP	-0.0495
RRIRCRPPRLPRPRPRPQMYPRP	-0.14
RRIRQRPPRLPRPRPRPKQYPRP	-0.359
RRIRMRPPRLPRPRPRPTLNPRP	0.299
RRIRMRPPRLPRPRPRPCMCPRP	-0.317
RRIRYRPPRLPRPRPRPYFLPRP	-1.23
RRIRTRPPRLPRPRPRPRRLPRP	0.172
RRIRKRPPRLPRPRPRPGRPPRP	0.857
RRIRQRPPRLPRPRPRPEHMPRP	-0.0877
RRIRLRPPRLPRPRPRPAYFPRP	-0.364
RRIRVRPPRLPRPRPRPNWQPRP	0.108
RRIRPRPPRLPRPRPRPFFTPRP	-0.117
RRIRDRPPRLPRPRPRPVEYPRP	0.0163
RRIRDRPPRLPRPRPRPQPVPRP	0.28
RRIRTRPPRLPRPRPRPRHTPRP	-0.16
RRIRHRPPRLPRPRPRPKATPRP	0.00379
RRIRTRPPRLPRPRPRPPNLPRP	0.0303
RRIRNRPPRLPRPRPRPGKRPRP	0.00355
RRIRERPPRLPRPRPRPERPPRP	-0.0522

Sequence	shrunken log2 fold change
RRIRVRPPRLPRPRPRPAMWPRP	-0.0044
RRIRWRPPRLPRPRPRPSRWPRP	0.209
RRIRARPPRLPRPRPRPARDPRP	0.298
RRIRERPPRLPRPRPRPVDNPRP	-0.107
RRIRERPPRLPRPRPRPWWEPRP	0.0397
RRIRLRPPRLPRPRPRPCINPRP	-0.209
RRIRTRPPRLPRPRPRPVKLPRP	0.0303
RRIRARPPRLPRPRPRPGYPPRP	0.0269
RRIRWRPPRLPRPRPRPHVQPRP	-0.209
RRIRPRPPRLPRPRPRPMRCPRP	0.221
RRIRERPPRLPRPRPRPRCPPRP	0.00202
RRIRYRPPRLPRPRPRPDIIPRP	-0.609
RRIRCRPPRLPRPRPRPAMLPRP	0.0443
RRIRPRPPRLPRPRPRPYCMPRP	-0.505
RRIRNRPPRLPRPRPRPGEEPRP	-0.0107
RRIRRRPPRLPRPRPRPAEYPRP	0.0756
RRIRQRPPRLPRPRPRPGPVPRP	-0.0186
RRIRQRPPRLPRPRPRPDRAPRP	0.12
RRIRKRPPRLPRPRPRPFCVPRP	0.706
RRIRCRPPRLPRPRPRPQLNPRP	-0.188
RRIRTRPPRLPRPRPRPMVCPRP	0.0039
RRIRFRPPRLPRPRPRPNVMPRP	-0.166
RRIRMRPPRLPRPRPRPYFYPRP	-0.53
RRIRNRPPRLPRPRPRPPGSPRP	-0.123
RRIRKRPPRLPRPRPRPEQHPRP	0.586

Sequence	shrunken log2 fold change
RRIRERPPRLPRPRPRPGRYPRP	-0.443
RRIRWRPPRLPRPRPRPLQDPRP	-0.0523
RRIRYRPPRLPRPRPRPHQFPRP	-0.984
RRIRDRPPRLPRPRPRPTAWPRP	1.51
RRIRARPPRLPRPRPRPRGKPRP	0.376
RRIRCRPPRLPRPRPRPTWMPRP	-0.18
RRIRYRPPRLPRPRPRPFFYPRP	-0.614
RRIRGRPPRLPRPRPRPYHLPRP	-1.27
RRIRHRPPRLPRPRPRPERNPRP	0.036
RRIRMRPPRLPRPRPRPQKGPRP	-0.0123
RRIRERPPRLPRPRPRPDWFPRP	-0.00866
RRIRARPPRLPRPRPRPWFCPRP	0.0743
RRIRMRPPRLPRPRPRPPWSPRP	0.596
RRIRARPPRLPRPRPRPFFIPRP	-0.211
RRIRHRPPRLPRPRPRPWVAPRP	-0.0296
RRIRGRPPRLPRPRPRPMRHPRP	0.559
RRIRNRPPRLPRPRPRPTAGPRP	0.0608
RRIRWRPPRLPRPRPRPSFVPRP	-0.284
RRIRVRPPRLPRPRPRPYPQPRP	-0.349
RRIRIRPPRLPRPRPRPKNAPRP	-0.107
RRIRVRPPRLPRPRPRPVYIPRP	-0.363
RRIRQRPPRLPRPRPRPLRMPRP	0.483
RRIRKRPPRLPRPRPRPLTQPRP	0.198
RRIRSRPPRLPRPRPRPMWQPRP	-0.175
RRIRQRPPRLPRPRPRPRMCPRP	0.0318

Sequence	shrunken log2 fold change
RRIRHRPPRLPRPRPRPEYVPRP	-0.0134
RRIRTRPPRLPRPRPRPNFCPRP	-0.126
RRIRARPPRLPRPRPRPFDGPRP	-0.22
RRIRDRPPRLPRPRPRPGFQPRP	0.252
RRIRWRPPRLPRPRPRPAKIPRP	0.132
RRIRSRPPRLPRPRPRPLQPPRP	0.474
RRIRVRPPRLPRPRPRPMHPPRP	0.0843
RRIRFRPPRLPRPRPRPECSPRP	0.411
RRIRQRPPRLPRPRPRPVISPRP	0.0289
RRIRWRPPRLPRPRPRPAYLPRP	-0.108
RRIRWRPPRLPRPRPRPPFDPRP	0.445
RRIRDRPPRLPRPRPRPSPMPRP	0.136
RRIRSRPPRLPRPRPRPCFLPRP	-0.642
RRIRKRPPRLPRPRPRPPSQPRP	0.866
RRIRQRPPRLPRPRPRPRCAPRP	0.385
RRIRNRPPRLPRPRPRPYVSPRP	-0.0285
RRIRTRPPRLPRPRPRPHYVPRP	-0.0402
RRIRCRPPRLPRPRPRPCCSPRP	-0.321
RRIRVRPPRLPRPRPRPFCLPRP	-0.357
RRIRFRPPRLPRPRPRPHCTPRP	-0.268
RRIRERPPRLPRPRPRPMPEPRP	-0.114
RRIRCRPPRLPRPRPRPCLVPRP	-0.463
RRIRQRPPRLPRPRPRPNMRPRP	0.121
RRIRFRPPRLPRPRPRPTQPPRP	0.202
RRIRPRPPRLPRPRPRPSIPPRP	-0.436

Sequence	shrunken log2 fold change
RRIRYRPPRLPRPRPRPKPHPRP	-0.1
RRIRIRPPRLPRPRPRPCHVPRP	-0.401
RRIRERPPRLPRPRPRPEYWPRP	0.126
RRIRPRPPRLPRPRPRPWIYPRP	-0.584
RRIRSRPPRLPRPRPRPNEHPRP	-0.655
RRIRHRPPRLPRPRPRPALMPRP	-0.0655
RRIRSRPPRLPRPRPRPLADPRP	-0.0259
RRIRRRPPRLPRPRPRPVMNPRP	0.0331
RRIRDRPPRLPRPRPRPYSAPRP	-0.0545
RRIRARPPRLPRPRPRPMMWPRP	0.617
RRIRPRPPRLPRPRPRPYCQPRP	-0.223
RRIRKRPPRLPRPRPRPKPHPRP	0.747
RRIRGRPPRLPRPRPRPYDGPRP	-0.387
RRIRRRPPRLPRPRPRPIMHPRP	-0.094
RRIRLRPPRLPRPRPRPHFWPRP	0.144
RRIRGRPPRLPRPRPRPWPTPRP	0.233
RRIRYRPPRLPRPRPRPQCFPRP	-0.00674
RRIRRRPPRLPRPRPRPEACPRP	0.463
RRIRWRPPRLPRPRPRPQHNPRP	-0.537
RRIRHRPPRLPRPRPRPYLLPRP	-0.611
RRIRERPPRLPRPRPRPPMRPRP	0.779
RRIRLRPPRLPRPRPRPPDRPRP	0.467
RRIRLRPPRLPRPRPRPWKQPRP	-0.0134
RRIRFRPPRLPRPRPRPTLQPRP	-0.107
RRIRPRPPRLPRPRPRPNTLPRP	-0.468

Sequence	shrunken log2 fold change
RRIRPRPPRLPRPRPRPADVPRP	0.0118
RRIRWRPPRLPRPRPRPFVPPRP	-0.266
RRIRTRPPRLPRPRPRPFIYPRP	-0.657
RRIRGRPPRLPRPRPRPFPDPRP	0.0778
RRIRWRPPRLPRPRPRPNKHPRP	-0.281
RRIRRRPPRLPRPRPRPWTVPRP	-0.00497
RRIRTRPPRLPRPRPRPFAYPRP	-0.136
RRIRPRPPRLPRPRPRPEVVPRP	0.0581
RRIRIRPPRLPRPRPRPHLEPRP	-0.384
RRIRRRPPRLPRPRPRPKDGPRP	0.378
RRIRVRPPRLPRPRPRPYEMPRP	-0.311
RRIRYRPPRLPRPRPRPYRFPRP	-0.168
RRIRMRPPRLPRPRPRPEPQPRP	2.17
RRIRLRPPRLPRPRPRPAQAPRP	-0.0635
RRIRTRPPRLPRPRPRPIDQPRP	-0.00192
RRIRLRPPRLPRPRPRPDEAPRP	0.189
RRIRCRPPRLPRPRPRPLIAPRP	-0.0852
RRIRARPPRLPRPRPRPQWIPRP	-0.0374
RRIRKRPPRLPRPRPRPWGCPRP	0.131
RRIRARPPRLPRPRPRPFMPPRP	-0.149
RRIRKRPPRLPRPRPRPIDQPRP	0.122
RRIRNRPPRLPRPRPRPDMMPRP	-0.233
RRIRERPPRLPRPRPRPTDHPRP	-0.251
RRIRVRPPRLPRPRPRPASFPRP	0.115
RRIRERPPRLPRPRPRPCPHPRP	-0.105

Reference: the supplement of paper PMC9112550, “Optimization of the antimicrobial peptide Bac7 by deep mutational scanning” (BMC Biology, 2022)
